Assays:
Assay type in all cases: biochemical, Quillaja saponaria
[1] = Experiment 6-1: specificity of rhamnosidases towards other rhamnose residues (C3 saccharide rhamnose, C28 saccharide rhamnose); details: TBE 2%, pH 7.5, 30 degC, 18 h; LCMS/MS; negative controls 0.18, 0.17
[2] = Experiment 6-1: screening of rhamnosidases for derhamnosylation of saponins in treated bark extract (2%), QS-17 2296 to QS-18 2150 (PAR %); details: TBE 2%, pH 7.5, 30 degC, 18 h; TIC peak area ratio percent of rhamnosylated starting saponin to derhamnosylated product, LCMS/MS; negative controls 4.876, 5.225
[3] = Experiment 6-1: screening of rhamnosidases for derhamnosylation of saponins in treated bark extract (2%), desglucosyl-QS-17 2134 to QS-21 1988 (PAR %); details: TBE 2%, pH 7.5, 30 degC, 18 h; TIC peak area ratio percent, LCMS/MS; negative controls 2.719, 2.158
[4] = Experiment 6-1: screening of rhamnosidases for derhamnosylation of saponins in treated bark extract (2%), QS-17 2310 to QS-18 2164 (PAR %); details: TBE 2%, pH 7.5, 30 degC, 18 h; TIC peak area ratio percent, LCMS/MS; negative controls 3.061, 2.429

Row | Molecule | ratio PP/QS-21 [1] | QS-17 (PAR %) [2] [%] | Peak75 (PAR %) [3] [%] | Peak57 (PAR %) [4] [%]
1 | 1032 (protein, Spirosoma linguale) MRYIFFLGLLAASLTAFAQTAPTNLRTDLLLHTDKVWSNGFLTNYTLDGADSAKFAGQLALIRSSRPSFSWVLSTAGGTSRQTAYRLILSTSRQKNQADAGDVWDSGKVMSSQSVGILLPASQKLDTNRIYFWKVKVWNERNLESDFSQPKAFRTAPRLTAYETPFYPLVKTEEAPRSQRTLAGQRIVYDFGKDAFGQAFLTVSSASESDTLIVHLGEAVTADGHVNEKPSGTLRYRQIRVPLQKGTHRYAIQFKPDKRNTGPKAILMPDYIGEVLPFRYVELAFNPATRIEQIVRQVVTYPFDDSATTFSSSDSTLNQIWDLCKHTIKATTFTGYYVDGDRERIPYEADALLNQLSHYATDAEYNMAKRSLNYLVFHATWPTEWSLQNVLIAWYDYLYSGDSRTVEALYPELKAKLLLPLARPDGLISTRTGLQTPEFKKSIHYDTFDGRPTIQDIVDWPQQGVLGLGKKEAGETDGFVFTDYNAVVNAFHYQGLVFMAQLASRLGKTDDAAFYANRAGLVRKAFQATFIHPKTGLVRDGEGTDHASLHANMMALAFGLVPEKLQSQVLAHIRSRGMACSVYGSQFLLDALYNANESAYGLALMTSTDERSWYNMLRTGSTMTTEAWDTRYKPNQDWNHAWGSAPANIIVRKLMGVEALTLAYETVQIKPQPDTLRQASLQVATLRGPISVAFDNTPDRFVLRTTLPANTNGVVYLPRKKTKSQVLQNGKSVKAAVEGNFWKITSVGAGTHEWEVR | 0.17 | 4.730 | 2.411 | 3.044
2 | 1038 (protein, listed as Formosa agariphila) MILHKSVFKSYIYVLTYFVFFSVMSCENSSVLQEAKHLTISEGFKNPLGFYDAKPTFSWELPVVEGVISQSAYQIVVASSPDLLPNNPDLWDSNKQSSSQSVWINYEGKPLVSRQKVFWQVKYWNQDDKASNWSPVQNFELGLLNNSDWKAKWIGLPTKEEGVLGSQDNIIHRPQYLRKVFELSNDVANARLYITAKGVFDVAINGEDVSDDVMPPGYTPYKKRIETITYDVTDLIESGQNTIGVEVAAGWHSGRLGWMKSYWSDTESPKILCQLEVTMKDGSKASIISDDTWKATTQGPIRISEIYDGETYDAHLEMPHWTTNSFDDKNWKAVQAFPVTSTIKLEPKRHTTVKSKIVLESKEIILKADAAIFDLQQNMVGVPLLKVPMKMGDTLKIRFAEMLSPDGTFYTDNYRSAQSTDYYIAAKEGTIEWMPKFTFHGFRYVELSGFDASKTPSKNWVKGVVQYSNFNENGSFTSSHEKLNQLQSNIVWGLRGNFFDIPTDCPQRDERMGWTGDAQVFGPTSMFNADVYKFWASWMQSVRESQYDNGGIPFVVPDVLHNGKVSSGWGDVCTIIPWKIYYRTGDVGILEENYDMMKKWVAHHQATSKDFISHMNSFADWLQPYPENGNNKGDTSHSLIGTAFFAHSAKLTAKTAEVLGKKEEQATYEALYKSVAKAFENAFFKNGKVKDVTATQTSYLLALAFDLLSEENKENAKQQLLEKISEADNHLRTGFLGTPLLSEVLDETGEIDLMYKLLFNETYPSWFYSINQGATTIWERWNSYSKAEGFNPMKMNSLNHYAYGAIGEWMYERITGIAPLQAGYKIISIAPIPKAPLTSASATLNTPYGEVASSWEIKNETLFLEVVVPPNTTAEIEIPTDNSESLKVDNENFTNGKNLKLIKNEKRKIKILAQPGTYEFQAKYSL | 0.18 | 4.725 | 2.512 | 2.913
3 | 1047 (protein, listed as Brachybacterium faecium) MSSHTAQHVLDALTHPDPAARPMMRWWWFGPDMDRAEIDRELRAMAAAGLGGAEIALVYPLRPGAPDYLGDEALGHVRHAAERARELGLRLDVTLGSGWSYGGPHIGPEQAARRLRWERRDLGPQPLSWPLTPSWPGDELVSVHLGEGLPPSGWTRLDPVGERLEIPAGRGPRTVLLAWSEVTGQQVKRSAAGAEGPVVDHLSATAVRHHLDVVGGALLSAVPAHLLGSVFSDSLEVYDAGWTAALPEQFRQRRGYDLLPVLHLLEVDAPGAEQVREDYGLTLSELVEEGFVGTCRAWAEEHGVRFRLQGYGQPPITLSAQRGAHLIEGEGAGWTALTQSRWASSAAHLDRREVVSSEVWTWVRSPAFRAAPLDLLGEAHEHLLLGITHFVGHGWPYTAPDAPGLGWTFYAAGALDDRNAWWPAMPELTAHLTRLCAALRLGAPGAEVALYLPYADVRAARGRGHDLWAACRAHIGEQLPAAIRRAGYDLDLLDDDALAALDPAAYPVVVLPRVSRLPAETRRWLDRVRAAGGSVLAVDSPAYPAGQQLSLPEEDGDDARLRDHATLAMVGARGGSDAEGEEGADGEGADGEAAGGKNPLAAALRGAHTPPLLLSGDGGEVGTVHRRLADGDLHLLAHTGPRRREVEVTPRDPRRALALHDPAEPGLRPLPSTGARLVLHPYQAVLLLATDQPLPAPDGAAPATDAAHGPAQTGTAEPEPIALDGPWTASRPGEAPRAVTLPHLLTGQDAADLRPLLLETTVTLDEDTARGPLVLDLGPGRAVPHTGEGSGYRALLEPPVREIAVLEVDGEELGVLWRPPYRIALTGRLRAGTSRLRLRIHGTTAAAAALPENAEAAAGQVAAAHETYGERFQPQELERMLDGVATGLASVPVLRRAGG | 0.17 | 4.669 | 2.456 | 3.332
4 | 997 (protein, Lachnoclostridium phytofermentans) MKSFIKELIEQKEGNYILPFFWQHGESEGKLREYMEAIHSCGIRAVCVEARPHPDYLGPGWWHDLDIIIDEAKKRDMKLWILDDAHFPTGYAAGKIAESEDKYCKQYISRKFIDVSGPTPEVEVNLAAMMMPIMLPSGLNLEMFGMSSEKKRYFTDDRILSIRAYQMDKDSSLIGEGIDLTTNIVNGKLIWDVPKGTWRINVLFITRNGEGRCDYINMVDKDSCRIQIDAVYEPHYEHYKEEFGKTIAGFFSDEPCLGNSIGYNFDESIGKKKTPLPWSSQLEKMLEEKLGKEYLPYYPALWTDMADEKVNARVRYAYMDCVTRLVEENFSRQIGQWCEERGVEYIGHIVEDNNQHSRLGSSQGHFFRSMMGQHMSGIDNIGDQVLPGGENHKREALLGADKDGEFYHYELGKLGSSLAHIDPKKQGRAMCEIFGAYGWRLGIRTMKYLMDHFLVRGINVYVPHAFSPKDFPDSDCPPHFYAGGEDPQFNYFKKLMHYTNRMCHLLNGGTHIAPAAVLYHGEAEWTGGCMFNQKVARELLESQIDFDILPSDVFADMSAYNATFDGFLQVNGESYDCFIVPYAEFITKEVAVFAGTASKKGFPVFFVQGLPESICNIDKKEEEKLLLDGMSECIVVPLEALSKTLKDNKLFEISSDNQFDGLRYYHYRKEQTELYMFSNESIGKEYNGWITVKSKGEVSLYDAMDNRIIPAEYRNTEDGTSIHIRLTPYQSVVALFEDLKEVEDQGNFEAKPGYRLDAAWRISSAEVSKYPEFQPVEVTTELKSMGRVLPDFSGYLRYESEFVYDRMPTGRELLNITDVYEGAEVWLNGHCLGMKICPPYQFPLGEALRAGENHIRIEVATTLDRKVKSLPQDMRSLMFYSKITEPTGIVGSVEIWN | 0.17 | 4.754 | 2.115 | 2.906
5 | 1045 (protein, listed as Acidobacterium capsulatum) MLVGGLATAATAQTNLQQLEKTFQNPPDNAKPMLRWWWFGPSVTKPEILREMQQIKAGGFGGFVIHYVYPLALDDPQTGFRNLPFLSPAMLSDVSYANRQAHALGLRAGTALASGWPYGGPMTAVTEAAAKIVQKESTVAPGAHSVALPSIGNGQKLLAVFAQDGSAGSQQKMLPLPAPVTLRMAIPTGTHIVDWYLMSRTGQQVKRAAVDANGFVLDHFSHHAVADHLKNVGDKLVAAFGSEPPDSVFSDSLEVFGADWTPDFLEEFRKKNGYSLLPYLPDLFMKHPDAQALAVRHDWGVTLTALIDENYLTQVNAWARAHHTHLRAQVYGPPAVSLSSNNLVDLPEGEGPQWRQFAYTRWATSAGHLYGRPIISSETFTWLHSPAFRATPLDVKAEADRFFLQGVNQIYCHGWPYSPPSAGEPGWRFYAAAVFDAHNPWWIVMPEVTQYLQRVSWIMRQGAPANRVAIFLPEDDAWAAFTPGQVALTGLLPRWITPQLTQAIENSGYDFDYIDAAAIQARGIHYSLLILPNVDRISPAALTAIQQYEKSGGKVIALGRIPAHAPGFLHYEQISAEVNRESHAFFGHPGARVRVVQAVSGLGDALHQMLTPAMTLSAAKPAVGFVRRKLDDADIYFLANTSNVSIHTVAHLRSRYTSGTWLDPMSGKAYAAQSRNGGWPLHLAPYGSTILVLHAKNVRLPVAAGHDSFNPSSTKAIADLSSDWNVSFPALHLQEPMATLASWTKNEKTLYYSGVAVYRRTLEVAQNDLDHAPLLLSFGQGTPVSPSAFHRQMGTRAWLNPPVHVAAVVYVNGRLAGTVWHPPYVLAVGGLLKPGANQIEVRVANTAINEMAGKSLPDYRLLWARYGRRFEPQDMKHLQPLPSGLLGKVELLEGESR | 0.17 | 4.741 | 2.442 | 2.865
6 | 1057 (protein, listed as Parabacteroides goldsteinii) MKVDITKIFTILFVIAFAGCLLQSCNSSINGLEQGFFNPPDSVRPGVYWYFMDGNLSKEAMTKDLESMKEAGIGHVVYLEVNVGVPRGSVDFLSDEWQEMFAHAVAECERLGIDITLGVGPGWTGSGGPWVEGAQSMMHLVSSSVNVSGKGKKTIALPKPSPKPHFFAEDNFTPESKKRWEEYYEDVAVLAFPAGASTFGTDYEAGSAYLRITGIEEKALYYRKPYSSVTQVKPYLTFGKDSFTVQTVDKDCIIDLTDHLEIDGTLTWEVPEGDWTIMRFGARNNGAVTRPAPHPGVGLETNKFDTTALNAHLDKFVTKLFNRVGFKKAQPQGGLQMLHMDSWEMGAQNWTTHFREEFTKRRGYDPQPFYPVYAGFIVQSREESERFLWDLRVTSQELIKEYHAGHIKSYGKRYGLGLSIEPYDMNPTADLELASVADMPMCEFWSVGYGYNTSFSAMEGTSVAHLLGQPVVPAESFTAYLDGWRQHPGSMKNQTDWALASGINRLMFHTFQHQPLNDRLRPGMTMGPYGVHWDRNQTWWPMADAYHRYISRCQLLLQQGRTVADILYLTPEGAPHVFRAPISALEGDLLDTDNLFNFRNETPLPDRKGYNFDACPPSLFYDAQVKDGKVVFPSGVSYRLLVLPCFETMTPELLEKIRDLVNGGATVVGLPPQKSPSLVNYPVCDEKVRVLVQELWGGYEIPETVEIRSIGKGKVIWSKELLEQQDNLYPTYEYTADILAKMDVHEDFESTGEIRYTHRTMKGYEIYFVSNRKDSPVTVNCKFRMTGHPELWNPMTGEIRPLAEYTVTGVHTTIPLLFDANEGYFIVFRDNTFQREIQTKKNFPDSRRVASLTAPWSVSFDPAWGGPEQVTFEKLTDWTQHPDSGIRYYSGTAIYRQTFDRPADNSKQQFLDLGKVKNLARVRLNGQDLGVVWTAPWRVEITKALKLKDNQLEIEVVNLWPNRLIGDEQLPDDGIRNGEWPEWLKDGGPRTSGRYTFTTYKHFTKESPLLESGLLGPVTIWGIDN | 0.15 | 4.670 | 2.498 | 3.213
